In patent publication US20060014680A1, “Peptides and compounds that bind to the IL-5 receptor” (priority 2004, published 2006):
Positions of bridges follow the written chain, without caps; N, C: chain ends.

T1: human IL-5Rα extracellular domain (Homo sapiens, UniProt Q01344)
T1 construct: human IL-5Rα extracellular domain harvest; made in house; host or cells: CHO cells
T1 sequence (Q01344 21-342 limits assumed): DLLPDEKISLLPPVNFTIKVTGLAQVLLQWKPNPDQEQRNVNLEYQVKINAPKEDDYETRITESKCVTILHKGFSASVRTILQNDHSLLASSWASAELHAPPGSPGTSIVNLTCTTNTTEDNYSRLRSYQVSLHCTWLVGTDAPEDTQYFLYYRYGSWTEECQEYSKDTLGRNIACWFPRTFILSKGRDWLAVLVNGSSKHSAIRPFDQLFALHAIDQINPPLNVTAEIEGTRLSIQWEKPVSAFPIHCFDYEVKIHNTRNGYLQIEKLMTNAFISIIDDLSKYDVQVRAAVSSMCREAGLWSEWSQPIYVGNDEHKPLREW

T2: human IL-5 receptor (Homo sapiens, UniProt P32927+Q01344)
T2 construct: endogenous in cells; host or cells: HL60 subclone induced towards eosinophil differentiation with sodium butyrate
T2 sequence (Q01344 21-420): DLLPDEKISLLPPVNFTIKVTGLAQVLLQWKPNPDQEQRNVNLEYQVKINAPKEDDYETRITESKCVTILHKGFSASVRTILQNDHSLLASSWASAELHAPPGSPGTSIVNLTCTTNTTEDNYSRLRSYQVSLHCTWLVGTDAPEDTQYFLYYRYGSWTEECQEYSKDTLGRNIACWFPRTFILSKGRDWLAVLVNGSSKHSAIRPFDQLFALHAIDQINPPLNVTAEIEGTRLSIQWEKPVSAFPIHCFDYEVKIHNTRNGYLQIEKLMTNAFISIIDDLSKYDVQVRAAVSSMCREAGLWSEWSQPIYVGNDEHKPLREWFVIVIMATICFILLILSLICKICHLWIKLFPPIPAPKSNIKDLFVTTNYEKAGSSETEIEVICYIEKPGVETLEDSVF
T2 sequence (P32927 17-897): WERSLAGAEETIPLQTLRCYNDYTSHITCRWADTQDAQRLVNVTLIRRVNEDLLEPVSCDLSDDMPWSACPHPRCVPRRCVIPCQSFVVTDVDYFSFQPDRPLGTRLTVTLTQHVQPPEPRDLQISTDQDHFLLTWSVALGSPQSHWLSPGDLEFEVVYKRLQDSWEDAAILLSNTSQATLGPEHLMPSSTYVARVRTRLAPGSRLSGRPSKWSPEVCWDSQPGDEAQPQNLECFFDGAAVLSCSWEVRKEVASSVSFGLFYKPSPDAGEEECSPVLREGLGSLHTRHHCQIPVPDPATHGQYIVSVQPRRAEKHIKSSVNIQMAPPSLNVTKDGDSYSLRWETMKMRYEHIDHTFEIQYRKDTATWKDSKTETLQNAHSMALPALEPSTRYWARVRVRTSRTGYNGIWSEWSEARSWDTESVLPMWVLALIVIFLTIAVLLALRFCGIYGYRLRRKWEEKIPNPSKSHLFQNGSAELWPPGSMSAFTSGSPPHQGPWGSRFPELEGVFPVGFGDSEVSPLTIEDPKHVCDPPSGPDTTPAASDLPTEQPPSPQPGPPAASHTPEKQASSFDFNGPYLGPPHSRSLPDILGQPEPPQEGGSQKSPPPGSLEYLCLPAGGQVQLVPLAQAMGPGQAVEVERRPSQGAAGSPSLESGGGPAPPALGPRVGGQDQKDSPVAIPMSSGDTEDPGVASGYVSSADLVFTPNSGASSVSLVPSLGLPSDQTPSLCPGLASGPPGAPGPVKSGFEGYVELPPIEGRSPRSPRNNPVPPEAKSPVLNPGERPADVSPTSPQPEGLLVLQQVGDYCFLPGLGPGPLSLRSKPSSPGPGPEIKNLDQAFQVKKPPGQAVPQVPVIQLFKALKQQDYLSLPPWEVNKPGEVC

T3: human IL-5Rα extracellular domain harvest with a MAb 179 epitope tag (human, UniProt Q01344 21-342)
T3 construct: extracellular domain; Captured on MAb179-conjugated AlphaScreen acceptor beads; also called IL-5 receptor; IL-5R-α chain ECD
T3 sequence (looked up): T1 sequence (Q01344 21-342 limits assumed)

B1: AF35910 (Ac-Val Asp Glu Cys Trp Arg Ile Ile Ala Ser His Ala Trp Phe Cys Ala Glu Glu-NH2) (peptide)
peptide: Ac-VDECWRIIASHAWFCAEE-NH2
modifications: disulfide 4-15 (inferred)
B2: AF35912 (Ac-Val Asp Glu Cys Trp Arg Ile Ile Ala Ala His Thr Trp Phe Cys Ala Glu Glu-NH2) (peptide)
peptide: Ac-VDECWRIIAAHTWFCAEE-NH2
modifications: disulfide 4-15 (inferred)
B3: AF35918 (Ac-Val Asp Ala Cys Trp Arg Ile Ile Ala Ser His Thr Trp Phe Cys Ala Glu Glu-NH2) (peptide)
peptide: Ac-VDACWRIIASHTWFCAEE-NH2
modifications: disulfide 4-15 (inferred)
B4: AF35920 (Ac-Val Ala Glu Cys Trp Arg Ile Ile Ala Ser His Thr Trp Phe Cys Ala Glu Glu-NH2) (peptide)
peptide: Ac-VAECWRIIASHTWFCAEE-NH2
modifications: disulfide 4-15 (inferred)
B5: AF35921 (Ac-Ala Asp Glu Cys Trp Arg Ile Ile Ala Ser His Thr Trp Phe Cys Ala Glu Glu-NH2) (peptide)
peptide: Ac-ADECWRIIASHTWFCAEE-NH2
modifications: disulfide 4-15 (inferred)

Biological target: T1, human IL-5Rα extracellular domain
Assay: IL-5 receptor-ligand Alpha Quest binding assay (alanine scan of AF17121, FIG. 1)
Details: relative to parent monomer AF17121 (SEQ ID NO:1); single Ala substitution
Procedure: The affinity of compounds for the IL-5 receptor was tested in a homogeneous Alpha Quest binding assay. The peptides tested were solubilized at approximately 10 mM in DMSO. Each peptide was then serially diluted into freshly made, sterile filtered assay buffer (40 mM Hepes, pH 7.4 with NaOH, containing 1 mM MgCl2, 0.1% BSA and 0.05% Tween-20). Four microliters of each test compound dilution was transferred in triplicate to a 384-well, low volume, white, polypropylene Griener plate (E&K Scientific #31075). A mixture was prepared in assay buffer containing Packard Bioscience AlphaScreen streptavidin coated donor beads at […], MAb179 (prepared as described in Whitehom, E., A Generic Method for Expression and Use of “Tagged” Soluble Versions of Cell Surface Receptor, Biotechnolgy 1995, 13, 1215-1219) conjugated Packard Bioscience Alpha Screen acceptor beads per manufactures protocol, at 40 ug/mL, and human IL-5Rα extracellular domain harvest with a MAb 179 epitope tag prepared as previously described (England, B., A Potent Dimeric Peptide Antagonist of Interleukin-5 that Binds Two Interleukin-5 Receptor α Chains, PNAS, vol.97, no. 12, 6862-6867). Two microliters of beads and receptor harvest mixture were added to each assay well. Alpha Quest beads are light sensitive so all steps after the introduction of the beads were carried out under green lighting (lights adapted with Roscolux Chroma Green #389 filter sleeves which transmit <1% at 680 nm). After a 5-10 minute room temperature incubation, two microliters of 62.4 nM biotinylated MBP-AF12368, GEVCTRDVANHRWMCGVD (SEQ ID NO 73), tracer peptide (prepared as described in Schatz P., Use of Peptide Libraries to Map the Substrate Specificity of a Peptide-Modifying Enzyme: A 13 Residue Consensus Peptide Specifies Biotinylation in Escherichia coli, Biotechnology 1993, 11, 1138-1143) diluted in assay buffer was added to each well. The assay plate was spun to 55 rpm in a plate centrifuge, sealed with Packard Top Seal, wrapped in foil and placed in a room temperature incubator in the instrument room. The plate was read after 16-20 hours using a Packard Bioscience Alpha Quest Discovery™ plate reader.
Results for various compound embodiments of the invention are depicted in FIGS. 1-4 and 6-8.

| Molecule | more potent (peptide monomer with single alanine substitution) |
| --- | --- |
| Ac-ADECWRIIASHTWFCAEE-NH2 (cysteine pairing not given here) [AF35921] | about 350% |
| Ac-VDECWRIIAAHTWFCAEE-NH2 (cysteine pairing not given here) [AF35912] | about 450% |
| Ac-VDECWRIIASHAWFCAEE-NH2 (cysteine pairing not given here) [AF35910] | about 135% |
| Ac-Val Ala Glu Cys Trp Arg Ile Ile Ala Ser His Thr Trp Phe Cys Ala Glu Glu-NH2 (Ac-VAECWRIIASHTWFCAEE-NH2; not fully specified (bridges); printed as Ac-Val Ala Glu Cys Trp Arg Ile Ile Ala Ser His Thr Trp Phe Cys Ala Glu Glu-NH2; cysteine pairing not given here) [AF35920] | about 200% |
| Ac-Val Asp Ala Cys Trp Arg Ile Ile Ala Ser His Thr Trp Phe Cys Ala Glu Glu-NH2 (Ac-VDACWRIIASHTWFCAEE-NH2; not fully specified (bridges); printed as Ac-Val Asp Ala Cys Trp Arg Ile Ile Ala Ser His Thr Trp Phe Cys Ala Glu Glu-NH2; cysteine pairing not given here) [AF35918] | about 675% |

Biological target: T2, human IL-5 receptor
Assay: not given
Details: high affinity IL-5 binding sites; HL60 subclone, eosinophilic differentiation initiated with sodium butyrate; cited from earlier work

| Molecule | Kd [nM] |
| --- | --- |
| IL-5: lymphokine secreted by T cells and mast cells, having biological activities on B cells and eosinophils | 0.03 |

Biological target: T3, human IL-5Rα extracellular domain …
Assay: alanine scan of AF17121, AlphaQuest competition binding assay on human IL-5Rα ECD with the tracer biotinylated MBP-AF12368 (the assay is named by FIG. 1, not by the sentence)
Details: not given
Procedure: The affinity of compounds for the IL-5 receptor was tested in a homogeneous Alpha Quest binding assay. The peptides tested were solubilized at approximately 10 mM in DMSO. Each peptide was then serially diluted into freshly made, sterile filtered assay buffer (40 mM Hepes, pH 7.4 with NaOH, containing 1 mM MgCl₂, 0.1% BSA and 0.05% Tween-20). Four microliters of each test compound dilution was transferred in triplicate to a 384-well, low volume, white, polypropylene Griener plate (E&K Scientific #31075). A mixture was prepared in assay buffer containing Packard Bioscience AlphaScreen streptavidin coated donor beads at […], MAb179 (prepared as described in Whitehom, E., A Generic Method for Expression and Use of “Tagged” Soluble Versions of Cell Surface Receptor, Biotechnolgy 1995, 13, 1215-1219) conjugated Packard Bioscience Alpha Screen acceptor beads per manufactures protocol, at 40 ug/mL, and human IL-5Rα extracellular domain harvest with a MAb 179 epitope tag prepared as previously described (England, B., A Potent Dimeric Peptide Antagonist of Interleukin-5 that Binds Two Interleukin-5 Receptor α Chains, PNAS, vol.97, no. 12, 6862-6867). Two microliters of beads and receptor harvest mixture were added to each assay well. Alpha Quest beads are light sensitive so all steps after the introduction of the beads were carried out under green lighting (lights adapted with Roscolux Chroma Green #389 filter sleeves which transmit <1% at 680 nm). After a 5-10 minute room temperature incubation, two microliters of 62.4 nM biotinylated MBP-AF12368, […] (SEQ ID NO 73), tracer peptide (prepared as described in Schatz P., Use of Peptide Libraries to Map the Substrate Specificity of a Peptide-Modifying Enzyme: A 13 Residue Consensus Peptide Specifies Biotinylation in Escherichia coli, Biotechnology 1993, 11, 1138-1143) diluted in assay buffer was added to each well. The assay plate was spun to 55 rpm in a plate centrifuge, sealed with Packard Top Seal, wrapped in foil and placed in a room temperature incubator in the instrument room. The plate was read after 16-20 hours using a Packard Bioscience Alpha Quest Discovery™ plate reader.

| Molecule | percent more potent than AF17121 (SEQ ID NO: 1) [%] |
| --- | --- |
| B1 | ~135 |
| B2 | ~450 |
| B3 | ~675 |
| B4 | ~200 |
| B5 | ~350 |
